Laboratory results taken from the supplement of paper PMC12764529.
± gives the half width of the 95% confidence interval.

What was measured:
[1] = folding stability dG unfold from chymotrypsin proteolysis; higher = more stable
Description: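 Folding stability of de novo designed mini-proteins (<80 aa, no Cys; designed by TrROS, TrMRF, ProteinMPNN and the joint model) was measured by cDNA display proteolysis with trypsin and chymotrypsin. Each protease was used at 11 concentrations in a threefold dilution series plus a no-protease condition. K50 was inferred by Bayesian fitting of sequencing counts, and dG unfold was derived against a sequence-predicted unfolded-state K50 (Tsuboyama et al. method). Sequences shown include variable-length N-terminal GS-type padding (SAGGSAGG...) inside a display construct carrying a PA tag. Rows were kept only if the AF2 dimer inter-PAE was >15, to exclude likely homo-oligomers.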

[2] = folding stability dG unfold (combined trypsin and chymotrypsin); higher = more stable
Outline: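 Unfolding free energy was derived, per protease or combined, by relating Bayesian-fitted K50 values from sequencing counts to a sequence-predicted unfolded-state K50 and a shared folded-state K50. The underlying digests exposed cysteine-free mini-proteins under 80 residues, in a PA-tagged cDNA display construct, to trypsin and chymotrypsin at 11 threefold-diluted concentrations and to a no-protease condition. A filter kept only designs with AlphaFold2 dimer inter-PAE above 15.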

SAGGSAGGSAGDVEVTEVTDANGNLTLTVKAKPATVTPNETVTVTLTVVNDDGETKTFELSAGGSAGGSAGG [r17_293_TrROS_Hall]
folding stability dG unfold [1]: -0.186 ± 0.4 kcal/mol | folding stability dG unfold [2]: -0.493 ± 0.41 kcal/mol

SAGGSAGGSAGELPEGAKVEVREETFTRPDGYLVKRTEVRLEDTDELVTSEEVIEPGEEPSAGGSAGGSAGG [r11_338_TrROS_Hall]
folding stability dG unfold [1]: 0.899 ± 0.086 kcal/mol | folding stability dG unfold [2]: 0.378 ± 0.06 kcal/mol

SAGGSAGGSAGEPKIKKKYIIPLKLKDPNTDKVYIANIEVDNKEEVPKIVKKLKDKGYLSSAGGSAGGSAGG [r11_668_TrMRF]
folding stability dG unfold [1]: 0.351 ± 0.32 kcal/mol | folding stability dG unfold [2]: -0.0903 ± 0.4 kcal/mol

SAGGSAGGSAGEWIPADYIRDFARNLGMPGKIDVERKEDGWFTIEIRNNGGPRKIQIPLDSAGGSAGGSAGG [r11_410_TrROS]
folding stability dG unfold [1]: 0.00957 ± 0.25 kcal/mol | folding stability dG unfold [2]: -0.548 ± 0.38 kcal/mol

SAGGSAGGSAGGAADAKVRLVLRTRTFDAVPGEERELPGDSWVYEVGDKAVALELLADPVSAGGSAGGSAGG [r7_506_TrMRF]
folding stability dG unfold [1]: 0.895 ± 0.058 kcal/mol | folding stability dG unfold [2]: 0.21 ± 0.083 kcal/mol

SAGGSAGGSAGGAMDLPPSREAEIKLPNGETIRIFRPPDGSITLEFYDKGGKKTKIIPNSAGGSAGGSAGGS [r10_150_JUSTAS]
folding stability dG unfold [1]: -0.124 ± 0.17 kcal/mol | folding stability dG unfold [2]: < -1 kcal/mol

SAGGSAGGSAGGAVERFPGPATVTALPDGRRLVTTTDPSGRPTLTLLEVETPERVTAHPASAGGSAGGSAGG [r7_423_JUSTAS]
folding stability dG unfold [1]: 0.286 ± 0.038 kcal/mol | folding stability dG unfold [2]: -0.663 ± 0.2 kcal/mol

SAGGSAGGSAGGDEIAKQIAEHFREKGLDKNREIEIRNPENGEKITVRYTPEGGDFEVEPSAGGSAGGSAGG [r7_301_TrROS]
folding stability dG unfold [1]: -0.057 ± 0.17 kcal/mol | folding stability dG unfold [2]: < -1 kcal/mol

SAGGSAGGSAGGDPDGKPPPKIEFEMETVPIPNPDGQALEIEIFRIKGNGMLFIMIEPYSAGGSAGGSAGGS [r10_1137_TrROS]
folding stability dG unfold [1]: 4.21 ± 0.29 kcal/mol | folding stability dG unfold [2]: 4.47 ± 0.84 kcal/mol

SAGGSAGGSAGGEPEPIPIKVKIYNPEDGKKREVDFWIPYGNIKEVLKELMPKGYKVEIESAGGSAGGSAGG [r7_230_TrROS]
folding stability dG unfold [1]: -0.281 ± 0.23 kcal/mol | folding stability dG unfold [2]: -0.506 ± 0.33 kcal/mol

SAGGSAGGSAGGGKVTVYTDPKGGVVITTTETPDSITATVVDPSGKTTTVTVPPGAPLLSAGGSAGGSAGGS [r10_976_JUSTAS]
folding stability dG unfold [1]: 0.243 ± 0.18 kcal/mol | folding stability dG unfold [2]: -0.183 ± 0.38 kcal/mol

SAGGSAGGSAGGGMDEEETVELDLTTKGTDPAEVEAARAARAEELGLPLADVRVRVSAESAGGSAGGSAGGS [r10_401_JUSTAS]
folding stability dG unfold [1]: -0.252 ± 0.036 kcal/mol | folding stability dG unfold [2]: < -1 kcal/mol

SAGGSAGGSAGGGMITFSSESVEEFGSVTPVNVVRRVTRYTTKVGDTIIETTEEEVVPLESAGGSAGGSAGG [r7_248_JUSTAS]
folding stability dG unfold [1]: -0.049 ± 0.4 kcal/mol | folding stability dG unfold [2]: -0.368 ± 0.28 kcal/mol

SAGGSAGGSAGGGMPYPIKTEVEIKKNGPNISTTETVYRPDGTKIETKKYKIPKKELKKKSAGGSAGGSAGG [r7_602_JUSTAS]
folding stability dG unfold [1]: 0.154 ± 0.28 kcal/mol | folding stability dG unfold [2]: < -1 kcal/mol

SAGGSAGGSAGGGPEVEVETETLPTADGRPVRLVRARVPTREYLFLVSPDGEILRRIPVSAGGSAGGSAGGS [r10_97_TrMRF]
folding stability dG unfold [1]: 0.331 ± 0.16 kcal/mol | folding stability dG unfold [2]: -0.331 ± 0.22 kcal/mol

SAGGSAGGSAGGGSMILNVRTVVEEDFPINDRRKVTVLDPVVLVPAVAFDPSTGKATPVSAGGSAGGSAGGS [r10_815_JUSTAS]
folding stability dG unfold [1]: 0.667 ± 0.085 kcal/mol | folding stability dG unfold [2]: 0.298 ± 0.083 kcal/mol

SAGGSAGGSAGGGSMTKIGNGYLRYTLPGDTVVIYDPSTGTTQTLPVSNPVPVELPPNIPSAGGSAGGSAGG [r7_299_JUSTAS]
folding stability dG unfold [1]: 0.671 ± 0.031 kcal/mol | folding stability dG unfold [2]: 0.208 ± 0.057 kcal/mol

SAGGSAGGSAGGHPVLLTVPRRYTYLLPGTAPRTVTVPVPVVVEVDDPEVALRLARELEGSAGGSAGGSAGG [r7_21_TrMRF]
folding stability dG unfold [1]: -0.35 ± 0.73 kcal/mol | folding stability dG unfold [2]: < -1 kcal/mol

SAGGSAGGSAGGKKEREFKFPGAPIQAPVERNPANGKLKIDVEVTGDNPDWAKRLADAFSAGGSAGGSAGGS [r10_582_TrROS]
folding stability dG unfold [1]: -0.513 ± 0.56 kcal/mol | folding stability dG unfold [2]: < -1 kcal/mol

SAGGSAGGSAGGKTYYVTGKLYLKDKPRVIEVKLPYPSELEEEAPERVKKLAEELAKEESAGGSAGGSAGGS [r10_313_TrMRF]
folding stability dG unfold [1]: -0.394 ± 0.38 kcal/mol | folding stability dG unfold [2]: < -1 kcal/mol

SAGGSAGGSAGGMDEPVSLPVRKPILSPGSPEEAEARAAELKAPGVEVDAVPRDAAGRLESAGGSAGGSAGG [r11_703_JUSTAS]
folding stability dG unfold [1]: 0.764 ± 0.037 kcal/mol | folding stability dG unfold [2]: 0.126 ± 0.13 kcal/mol

SAGGSAGGSAGGMFYIKIPNGKQFPFKSKEEFKDQLRERNGRPMKIKDIEIQPLDPNQFSAGGSAGGSAGGS [r10_62_TrROS]
folding stability dG unfold [1]: 0.586 ± 0.26 kcal/mol | folding stability dG unfold [2]: -0.0888 ± 0.32 kcal/mol

SAGGSAGGSAGGMIDIPISPEIAENVPPGATVEVEILRDDGRIERLKVKVEDFEPVLPGGSAGGSAGGSAGG [r7_732_TrMRF]
folding stability dG unfold [1]: 0.308 ± 0.044 kcal/mol | folding stability dG unfold [2]: 0.0628 ± 0.26 kcal/mol

SAGGSAGGSAGGMIWIPESELSKLPESFKNFKILKKTPLTLPHPSKKNKPVVLVEIEKKESAGGSAGGSAGG [r7_237_JUSTAS]
folding stability dG unfold [1]: 0.696 ± 0.23 kcal/mol | folding stability dG unfold [2]: 0.122 ± 0.53 kcal/mol

SAGGSAGGSAGGMLSPEVGLPEVPVTLTDPTNDKVYTITVPPDTNPAEVAAALGVALLLSAGGSAGGSAGGS [r10_202_JUSTAS]
folding stability dG unfold [1]: 0.699 ± 0.23 kcal/mol | folding stability dG unfold [2]: -0.237 ± 0.38 kcal/mol

SAGGSAGGSAGGMLVTETKPLPTPRTVATVVLLSTEEAPLPSGVLVRRETTEVKLVELISAGGSAGGSAGGS [r10_718_JUSTAS]
folding stability dG unfold [1]: -0.503 ± 0.61 kcal/mol | folding stability dG unfold [2]: < -1 kcal/mol

SAGGSAGGSAGGMPPEETVTVTIVESKPVPDPEGNPVEPLPVKTTTITVPASNPEALAAKSAGGSAGGSAGG [r7_439_JUSTAS]
folding stability dG unfold [1]: 0.00655 ± 0.072 kcal/mol | folding stability dG unfold [2]: -0.487 ± 0.21 kcal/mol

SAGGSAGGSAGGMPVSVETKLIEKDPVEDVEISLETFPGTDLRVIVTKTKNEVKKTVIPKSAGGSAGGSAGG [r17_370_JUSTAS]
folding stability dG unfold [1]: -0.252 ± 0.13 kcal/mol | folding stability dG unfold [2]: -0.719 ± 0.51 kcal/mol

SAGGSAGGSAGGMSAEEVREIVEELGFDDPTEVVVLDLPDGRRVLVTNPPDGLRLEVLDSAGGSAGGSAGGS [r10_604_TrMRF]
folding stability dG unfold [1]: 0.967 ± 0.053 kcal/mol | folding stability dG unfold [2]: 0.562 ± 0.12 kcal/mol

SAGGSAGGSAGGMSSTVTVTTTPVDPNVGLYRVTTTTYYVDPDGPAHPGTSVSLVNRALSSAGGSAGGSAGG [r11_51_JUSTAS]
folding stability dG unfold [1]: -1.34 ± 0.83 kcal/mol | folding stability dG unfold [2]: < -1 kcal/mol

SAGGSAGGSAGGMSVSPEGYSVSVTGSGPRGVPVPASNAAEQRAALAAQPDVSSVTVTASSAGGSAGGSAGG [r11_587_JUSTAS]
folding stability dG unfold [1]: 0.36 ± 0.05 kcal/mol | folding stability dG unfold [2]: -0.883 ± 0.18 kcal/mol

SAGGSAGGSAGGMTETKVYPKSSEGGKLTTITTTTTPLKDPKGNWSTKTTTTTSVSPATSAGGSAGGSAGGS [r10_496_JUSTAS]
folding stability dG unfold [1]: 0.131 ± 0.15 kcal/mol | folding stability dG unfold [2]: -0.486 ± 0.27 kcal/mol

SAGGSAGGSAGGMTITKSPEPDLVTVTLPDASGTTVATLTFSPEVVESDPALVAAAAAATSAGGSAGGSAGG [r17_496_JUSTAS]
folding stability dG unfold [1]: 0.516 ± 0.095 kcal/mol | folding stability dG unfold [2]: -0.335 ± 0.39 kcal/mol

SAGGSAGGSAGGMTRTITVKSPGDAEAVVEELKPLGWEVKEIKKDTANPNVYTVTVEKPSAGGSAGGSAGGS [r10_104_JUSTAS]
folding stability dG unfold [1]: 0.752 ± 0.15 kcal/mol | folding stability dG unfold [2]: 0.198 ± 0.25 kcal/mol

SAGGSAGGSAGGMVPGETVTITIPVPPTGKEVPVEISTTLPPEEREALAEAKAAELEAALSAGGSAGGSAGG [r7_957_JUSTAS]
folding stability dG unfold [1]: 0.602 ± 0.025 kcal/mol | folding stability dG unfold [2]: -0.199 ± 0.11 kcal/mol

SAGGSAGGSAGGNKKKIELHFFFDPGQPAEEAKDFIRGAALENGDTITDVDIHWVPPEDFSAGGSAGGSAGG [r7_703_TrROS]
folding stability dG unfold [1]: 0.201 ± 0.11 kcal/mol | folding stability dG unfold [2]: -0.384 ± 0.3 kcal/mol
